From patent US6635450 come the findings set out here.

Data set [1] deals with Kip1 (28-79), 52-amino acid peptide with a C-terminal hexahistidine tag.
For data set [2], the system named is recombinant mouse Kip1 with a C-terminal hexahistidine sequence (expressed in BL21(DE3) bacteria from pET21a).
In data set [3] the target is His-cyclin E-Cdk2 complex (baculoviral human cyclin E with N-terminal hexahistidine, in complex with baculoviral Cdk2) (human) (UniProt P24864). The experiment in a line: cell-based or functional assay.
Data set [4] addresses human cyclin A-Cdk2 complex (baculovirally expressed) (human) (UniProt P20248). Description: cell-based or functional assay.

Sequence of recombinant mouse Kip1 with a C-terminal hexahistidine sequence (expressed in BL21(DE3) bacteria from pET21a) (chain, as listed by the source): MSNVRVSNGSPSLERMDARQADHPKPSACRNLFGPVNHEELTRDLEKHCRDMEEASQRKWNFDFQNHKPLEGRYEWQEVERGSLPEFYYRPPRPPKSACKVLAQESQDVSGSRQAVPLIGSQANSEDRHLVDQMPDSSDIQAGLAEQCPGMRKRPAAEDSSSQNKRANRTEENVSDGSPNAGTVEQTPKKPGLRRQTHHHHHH
Sequence of Kip1 (28-79), 52-amino acid peptide with a C-terminal hexahistidine tag (chain, as listed by the source): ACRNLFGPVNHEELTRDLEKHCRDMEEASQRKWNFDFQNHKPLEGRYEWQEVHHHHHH

In the case of “His-cyclin E-Cdk2 complex (baculoviral human cyclin E with N-terminal hexahistidine, in complex with baculoviral Cdk2)”, in data set [1], the Rb phosphorylation entry is on record as “inhibited cyclin E-Cdk2 or cyclin D2:Cdk4 less effectively”. The “Rb kinase activity (phosphorylation of a GST-Rb fusion product)” value in data set [2] is “Addition of Kip1 to cyclin E-Cdk2, cyclin A-Cdk2 or cyclin D2-Cdk4 complexes inhibited their ability to phosphorylate a GST-Rb fusion product”.

Consider “human cyclin A-Cdk2 complex (baculovirally expressed)”, for which the Rb phosphorylation entry in data set [1] was “This peptide inhibited Rb phosphorylation by cyclin A-Cdk2 with a potency that was close to that of full length Kip1”. For the same substance, the “Rb kinase activity (phosphorylation of a GST-Rb fusion product)” value in data set [2] is on record as “Addition of Kip1 to cyclin E-Cdk2, cyclin A-Cdk2 or cyclin D2-Cdk4 complexes inhibited their ability to phosphorylate a GST-Rb fusion product”.

“recombinant mouse Kip1 with a C-terminal hexahistidine sequence (expressed in BL21(DE3) bacteria from pET21a) (from UniProt P46414 1-197)”: the histone H1 kinase activity, half-maximal inhibition in data set [3] amounted to 0.5 nM. For the same substance, the histone H1 kinase activity, concentration for complete inhibition in data set [4] turned out to be 8 fold.

For the substance “cyclin E-Cdk2 complexes assembled in A549 cell extracts (added histidine-tagged baculoviral cyclin E with the endogenous Cdk2)”, the “cyclin E-associated histone H1 kinase activity and Thr160-phosphorylated form of Cdk2 on western blot” value in data set [2] was “Addition of histidine-tagged Kip1 to the cell extracts markedly decreased the level of cyclin E-associated kinase activity”.
